Key:
[1] = biological target: Caf1 H3 binding pocket mutant (E235Q/D252K/E279Q) (fly (Drosophila melanogaster), UniProt Q24572 1-430, E235Q | D252K | E279Q); assay: pull-down
Fly Caf1 wild-type = Fly Caf1 wild-type (fly (Drosophila melanogaster), UniProt Q24572 1-430); assay: pull-down
Chain of Fly Caf1 wild-type (Q24572 whole entry): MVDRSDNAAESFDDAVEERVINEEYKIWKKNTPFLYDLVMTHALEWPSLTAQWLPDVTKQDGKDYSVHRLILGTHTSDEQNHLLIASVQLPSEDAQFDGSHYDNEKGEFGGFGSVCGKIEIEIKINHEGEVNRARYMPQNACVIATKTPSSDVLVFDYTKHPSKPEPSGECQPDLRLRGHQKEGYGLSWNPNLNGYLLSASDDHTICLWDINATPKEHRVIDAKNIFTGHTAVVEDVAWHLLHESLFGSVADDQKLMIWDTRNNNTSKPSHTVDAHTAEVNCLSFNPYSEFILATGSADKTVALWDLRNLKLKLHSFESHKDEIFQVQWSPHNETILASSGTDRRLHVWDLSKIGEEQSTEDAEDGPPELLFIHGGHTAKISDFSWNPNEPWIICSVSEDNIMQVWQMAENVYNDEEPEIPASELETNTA

Chain of Caf1 H3 binding pocket mutant (E235Q/D252K/E279Q) (Q24572 whole entry E235Q/D252K/E279Q): as the sequence (Q24572 whole entry) above, with E235Q, D252K, E279Q counted along it

binding result [1]: binds
binding result (Fly Caf1 wild-type): binds
Binder: AKLQPLSEKEKKLVRQFNTFLVRNFEKIRRCKAKR (domain or fragment, fly (Drosophila melanogaster), UniProt Q9VW15 1582-1616, looked up) [GST-CBM (Caf1-binding-motif, Ash1 1,582-1,616)]

Reference: paper doi:10.1101/2023.01.24.525315 (bioRxiv, 2023)
